Reference: US6403764

Assays:
[1] = target: T1, recombinant human IGFBP-3 (human, UniProt P17936 28-291); assay: competitive phage ELISA; IC50mut/IC50 G1S-A70V
T1 construct: mature; Secreted recombinant protein

human IGFBP-1 [2] = target: T2, human IGFBP-1 (human, UniProt P08833 26-259); assay: competitive phage ELISA; IC50mut/IC50 G1S-A70V
T2 construct: mature; Secreted recombinant protein; also called IGFBP-I
T2 sequence (looked up): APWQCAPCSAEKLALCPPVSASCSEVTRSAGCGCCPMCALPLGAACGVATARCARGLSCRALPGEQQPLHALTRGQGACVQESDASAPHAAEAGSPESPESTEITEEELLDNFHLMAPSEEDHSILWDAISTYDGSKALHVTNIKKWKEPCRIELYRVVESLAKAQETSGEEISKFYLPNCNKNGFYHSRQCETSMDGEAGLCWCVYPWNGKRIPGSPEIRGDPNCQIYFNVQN

[3] = target: T1, recombinant human IGFBP-3; assay: phage ELISA value repeated from Table I; IC50mut/IC50 G1S-A70V
human IGFBP-1 [4] = target: T2, human IGFBP-1; assay: as above
human IGFBP-1 [5] = target: T2, human IGFBP-1; assay: competitive phage ELISA
Experimental: (§1) Phage particles were harvested and resuspended in PBS buffer as described in Lowman, H. B., "Phage Display of Peptide Libraries on Protein Scaffolds," in Cabilly, S. (ed.), *Combinatorial Peptide Library Protocols* (Humana Press Inc.: Totowa, N.J., 1998), pp. 249–264. Then phage concentrations were normalized to yield a maximal ELISA signal of 0.2–0.4 for each mutant (Lowman, in Cabilly, S. (ed.), supra). Threefold serial dilutions of soluble competitor were prepared on non-absorbent microtiter plates (Nunc, F, 96 wells) with binding buffer (0.5% TWEEN™ 20/PBS) containing phage at the previously-determined concentrations. The dilution range of competitor protein extended over six orders of magnitude, starting at 5 µM for IGFBP-1 and 500 nM for IGFBP-3. After blocking, the plates containing immobilized target were washed with 0.05% TWEEN™/PBS buffer and subsequently incubated with 80 µl/well of the premixed phage-competitor solutions for 1 hour at room temperature. […] Numbers in Table I represent mean±standard deviation of individually assessed $IC50$ values.
(§2) At least two different clones of every mutant were tested.

[6] = target: T3, human IGFBP-1 (human), P08833; assay: competitive phage ELISA; IC50mut/IC50 G1S-A70V; conditions: remark: other sources report otherwise
T3 chain: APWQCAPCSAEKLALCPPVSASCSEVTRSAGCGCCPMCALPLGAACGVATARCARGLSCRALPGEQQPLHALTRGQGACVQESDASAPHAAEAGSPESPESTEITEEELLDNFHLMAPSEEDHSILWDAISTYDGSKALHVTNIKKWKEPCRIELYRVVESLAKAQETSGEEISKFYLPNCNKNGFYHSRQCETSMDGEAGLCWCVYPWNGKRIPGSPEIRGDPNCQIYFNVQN

[7] = target: T3, human IGFBP-1 (human), P08833; assay: phage ELISA value repeated from Table I; IC50mut/IC50 G1S-A70V; conditions: remark: other sources report otherwise
[8] = target: T1, recombinant human IGFBP-3; assay: competitive phage ELISA, IGFBP-3-coated wells, soluble IGFBP-3 competitor (FIG. 3B)
Experimental: Phage particles were harvested and resuspended in PBS buffer as described in Lowman, H. B., "Phage Display of Peptide Libraries on Protein Scaffolds," in Cabilly, S. (ed.), *Combinatorial Peptide Library Protocols* (Humana Press Inc.: Totowa, N.J., 1998), pp. 249–264. Then phage concentrations were normalized to yield a maximal ELISA signal of 0.2–0.4 for each mutant (Lowman, in Cabilly, S. (ed.), supra). Threefold serial dilutions of soluble competitor were prepared on non-absorbent microtiter plates (Nunc, F, 96 wells) with binding buffer (0.5% TWEEN™ 20/PBS) containing phage at the previously-determined concentrations. The dilution range of competitor protein extended over six orders of magnitude, starting at 5 µM for IGFBP-1 and 500 nM for IGFBP-3.

[9] = target: T1, recombinant human IGFBP-3; assay: competitive phage ELISA
Experimental: as §1, §2

T1 sequence (P17936 28-291): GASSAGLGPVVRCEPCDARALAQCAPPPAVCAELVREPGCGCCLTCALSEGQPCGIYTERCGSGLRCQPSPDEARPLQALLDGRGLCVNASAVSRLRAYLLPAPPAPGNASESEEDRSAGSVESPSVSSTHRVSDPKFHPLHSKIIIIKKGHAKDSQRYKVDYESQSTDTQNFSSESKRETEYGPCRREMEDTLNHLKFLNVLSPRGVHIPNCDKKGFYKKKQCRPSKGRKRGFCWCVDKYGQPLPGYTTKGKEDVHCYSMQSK

IGF-I T29A displayed on phage (from UniProt P69168 267-424) (ligand)
relative IC50 [1]: 1.6
relative IC50 (human IGFBP-1 [2]): 0.9

IGF-I G32A displayed on phage (from UniProt P69168 267-424) (ligand)
relative IC50 [1]: 1
relative IC50 (human IGFBP-1 [2]): 1.3

IGF-I S33A displayed on phage (from UniProt P69168 267-424) (ligand)
relative IC50 [1]: 1.3
relative IC50 (human IGFBP-1 [2]): 1.1

IGF-I P28A displayed on phage (from UniProt P69168 267-424) (ligand)
relative IC50 [1]: 1.9
relative IC50 (human IGFBP-1 [2]): 1.1

IGF-I S34A displayed on phage (from UniProt P69168 267-424) (ligand)
relative IC50 [1]: 2.2
relative IC50 (human IGFBP-1 [2]): 1.2

IGF-I G1S-A70V displayed on phage (from UniProt P69168 267-424) (ligand)
relative IC50 [3]: 1
relative IC50 (human IGFBP-1 [4]): 1
relative IC50 [1]: 1
relative IC50 (human IGFBP-1 [2]): 1

Ala(1-3)-IGF-I displayed on phage (from UniProt P69168 267-424) (ligand)
IC50 (human IGFBP-1 [5]): 90.4 nM
relative IC50 [1]: 1.5
relative IC50 (human IGFBP-1 [2]): 11

IGF-I G30A displayed on phage (from UniProt P69168 267-424) (ligand)
relative IC50 [1]: 0.8
relative IC50 (human IGFBP-1 [2]): 0.9

IGF-I G7A displayed on phage (from UniProt P69168 267-424) (ligand)
relative IC50 [1]: 6.1
relative IC50 (human IGFBP-1 [2]): > 100

IGF-I Y31A displayed on phage (from UniProt P69168 267-424) (ligand)
relative IC50 [1]: 1
relative IC50 (human IGFBP-1 [2]): 0.8

B1: IGF-I F49A displayed on phage (ligand)
chain: SPETLCGAELVDALQFVCGDRGFYFNKPTGYGSSSRRAPQTGIVDECCARSCDLRRLEMYCAPLKPAKSV
notes: On phage; G1S-A70V template; also called IGF-F49A phage; not shown: Display partner: M13 gene III protein fragment (residues 249-406, mature count) and the junction to it
relative IC50 [6]: > 100
relative IC50 [7]: > 100
ratio of IC50 against G1S-A70V phage [8]: < 4 fold

B2: IGF-I P66A displayed on phage (ligand)
chain: SPETLCGAELVDALQFVCGDRGFYFNKPTGYGSSSRRAPQTGIVDECCFRSCDLRRLEMYCAPLKAAKSV
notes: On phage; G1S-A70V template; not shown: M13 gene III protein fragment (residues 249-406), the phage display carrier, and its junction to IGF-I
IC50 [9]: 0.57 nM
IC50 (human IGFBP-1 [5]): 9.4 nM

B3: IGF-I Q15A displayed on phage (ligand)
chain: SPETLCGAELVDALAFVCGDRGFYFNKPTGYGSSSRRAPQTGIVDECCFRSCDLRRLEMYCAPLKPAKSV
notes: On phage; G1S-A70V template; not shown: M13 gene III fragment (residues 249-406), the display carrier, and its junction
IC50 [9]: 1.26 nM
IC50 (human IGFBP-1 [5]): 13.9 nM

B4: IGF-I Q40A displayed on phage (ligand, not shown: large carriers)
chain: SPETLCGAELVDALQFVCGDRGFYFNKPTGYGSSSRRAPATGIVDECCFRSCDLRRLEMYCAPLKPAKSV
notes: On phage; G1S-A70V template
IC50 [9]: 0.56 nM
IC50 (human IGFBP-1 [5]): 10.2 nM

B5: IGF-I R21A displayed on phage (ligand)
chain: SPETLCGAELVDALQFVCGDAGFYFNKPTGYGSSSRRAPQTGIVDECCFRSCDLRRLEMYCAPLKPAKSV
notes: On phage; G1S-A70V template; not shown: Display carrier: M13 gene III protein fragment (residues 249-406) and the junction to it
IC50 [9]: 0.58 nM
IC50 (human IGFBP-1 [5]): 7.1 nM

B6: IGF-I R37A displayed on phage (ligand, not shown: large carriers)
chain: SPETLCGAELVDALQFVCGDRGFYFNKPTGYGSSSRAAPQTGIVDECCFRSCDLRRLEMYCAPLKPAKSV
notes: On phage; G1S-A70V template
IC50 [9]: 0.75 nM
IC50 (human IGFBP-1 [5]): 12.3 nM

B7: IGF-I R55A displayed on phage (ligand)
chain: SPETLCGAELVDALQFVCGDRGFYFNKPTGYGSSSRRAPQTGIVDECCFRSCDLARLEMYCAPLKPAKSV
notes: On phage; G1S-A70V template; not shown: Display partner: M13 gene III protein fragment (residues 249-406, mature count) and the junction to it
IC50 [9]: 0.66 nM
IC50 (human IGFBP-1 [5]): 9 nM

B8: IGF-I R56A displayed on phage (ligand)
chain: SPETLCGAELVDALQFVCGDRGFYFNKPTGYGSSSRRAPQTGIVDECCFRSCDLRALEMYCAPLKPAKSV
notes: as for B7
IC50 [9]: 1 nM
IC50 (human IGFBP-1 [5]): 13.1 nM

B9: IGF-I S35A displayed on phage (ligand, not shown: large carriers)
chain: SPETLCGAELVDALQFVCGDRGFYFNKPTGYGSSARRAPQTGIVDECCFRSCDLRRLEMYCAPLKPAKSV
notes: On phage; G1S-A70V template
IC50 [9]: 0.47 nM
IC50 (human IGFBP-1 [5]): 11.7 nM

B10: IGF-I S51A displayed on phage (ligand)
chain: SPETLCGAELVDALQFVCGDRGFYFNKPTGYGSSSRRAPQTGIVDECCFRACDLRRLEMYCAPLKPAKSV
notes: as for B7
IC50 [9]: 0.65 nM
IC50 (human IGFBP-1 [5]): 13.4 nM

B11: IGF-I S69A displayed on phage (ligand, not shown: large carriers; small tags and cut ends)
chain: SPETLCGAELVDALQFVCGDRGFYFNKPTGYGSSSRRAPQTGIVDECCFRSCDLRRLEMYCAPLKPAKAV
notes: On phage; G1S-A70V template
IC50 [9]: 0.71 nM
IC50 (human IGFBP-1 [5]): 12.8 nM

B12: IGF-I T4A displayed on phage (ligand, not shown: large carriers; small tags and cut ends)
chain: SPEALCGAELVDALQFVCGDRGFYFNKPTGYGSSSRRAPQTGIVDECCFRSCDLRRLEMYCAPLKPAKSV
notes: On phage; G1S-A70V template
IC50 [9]: 0.8 nM
IC50 (human IGFBP-1 [5]): 19.4 nM

B13: IGF-I V17A displayed on phage (ligand)
chain: SPETLCGAELVDALQFACGDRGFYFNKPTGYGSSSRRAPQTGIVDECCFRSCDLRRLEMYCAPLKPAKSV
notes: as for B3
IC50 [9]: 3.67 nM
IC50 (human IGFBP-1 [5]): 42.9 nM

B14: IGF-I Y24A displayed on phage (ligand)
chain: SPETLCGAELVDALQFVCGDRGFAFNKPTGYGSSSRRAPQTGIVDECCFRSCDLRRLEMYCAPLKPAKSV
notes: as for B5
IC50 [9]: 2.53 nM
IC50 (human IGFBP-1 [5]): 13.3 nM

B15: IGF-I Y60A displayed on phage (ligand)
chain: SPETLCGAELVDALQFVCGDRGFYFNKPTGYGSSSRRAPQTGIVDECCFRSCDLRRLEMACAPLKPAKSV
notes: as for B2
IC50 [9]: 0.52 nM
IC50 (human IGFBP-1 [5]): 6.6 nM
